# Results reported in patent US20210361653.
# B1: GST-SPOP (protein)
# chain: MSRVPSPPPPAEMSSGPVAESWCYTQIKVVKFSYMWTINNFSFCREEMGEVIKSSTFSSGANDKLKWCLRVNPKGLDEESKDYLSLYLLLVSCPKSEVRAKFKFSILNAKGEETKAMESQRAYRFVQGKDWGFKKFIRRDFLLDEANGLLPDDKLTLFCEVSVVQDSVNISGQNTMNMVKVPECRLADELGGLWENSRFTDCCLCVAGQEFQAHKAILAARSPVFSAMFEHEMEESKKNRVEINDVEPEVFKEMMCFIYTGKAPNLDKMADDLLAAADKYALERLKVMCEDALCSNLSVENAAEILILADLHSADQLKTQAVDFINYHASDVLETSGWKSMVVSHPHLVAEAYRSLASAQCPFLGPPRKRLKQS
# Target: His-BRD4-N (amino acids 1-500), O60885
protein,measurement,value
B1,in vitro ubiquitination assay,The SPOP-CULLIN3-RBX1 complex was shown to catalyzed BRD4 ubiquitination in vitro
